Here are results for 14 molecules from patent US20240116985A1 (published 2024).

Starred links: 1 amine or outer side, 2 acyl side, 3 side chain; linkers in the order of their positions; H or OH if unused. Positions of bridges follow the written chain, without caps; N, C: chain ends. Non-standard residues stand in square brackets, D forms with d. Primed or numbered codes have the meaning given here. PyrS2(3) = (S)-3-amino-1-((pent-4-en-1-yloxy)carbonyl)pyrrolidine-3-carboxylic acid, stapling residue, C=CCCCOC(=O)N1CC[C@@](N[*:1])(C(=O)[*:2])C1; PyrS2″ = (S)-3-amino-1-((pent-4-en-1-yloxy)carbonyl)pyrrolidine-3-carboxylic acid (stapling residue), C=CCCCOC(=O)N1CC[C@@](N[*:1])(C(=O)[*:2])C1; B5(4) = 2,2-bis(4-pentenyl)glycine = 2-amino-2-(pent-4-en-1-yl)hept-6-enoic acid (stitching residue), C=CCCCC(CCCC=C)(N[*:1])C(=O)[*:2]; TfeGA = (S)-2-amino-3-((carboxymethyl)(2,2,2-trifluoroethyl)amino)propanoic acid, O=C([C@H](CN(CC(=O)[*:3])CC(F)(F)F)N[*:1])[*:2]; PyrS2 = (S)-3-amino-1-((pent-4-en-1-yloxy)carbonyl)pyrrolidine-3-carboxylic acid, C=CCCCOC(=O)N1CC[C@@](N[*:1])(C(=O)[*:2])C1; MePpzAsn = (S)-2-amino-4-(4-methylpiperazin-1-yl)-4-oxobutanoic acid, CN1CCN(C(=O)C[C@H](N[*:1])C(=O)[*:2])CC1; F2PipNva = (S)-2-amino-5-(4,4-difluoropiperidin-1-yl)pentanoic acid, O=C([C@H](CCCN1CCC(F)(F)CC1)N[*:1])[*:2]; MorphAsn = (S)-2-amino-4-morpholino-4-oxobutanoic acid, O=C(C[C@H](N[*:1])C(=O)[*:2])N1CCOCC1; B5(3) = 2,2-bis(4-pentenyl)glycine (stitching residue), C=CCCCC(CCCC=C)(N[*:1])C(=O)[*:2]; B5″ = 2,2-bis(4-pentenyl)glycine, stitching residue, C=CCCCC(CCCC=C)(N[*:1])C(=O)[*:2]; Phe(F5) = N[C@@H](Cc1c(F)c(F)c(F)c(F)c1F)C(=O)O; Nva(5-morpholino) = N[C@@H](CCCN1CCOCC1)C(=O)O; Phe(3-COOH) = N[C@@H](Cc1cccc(C(=O)O)c1)C(=O)O; 2F3MeF = Cc1cccc(C[C@H](N[*:1])C(=O)[*:2])c1F; Phe(3-CN) = N#Cc1cccc(C[C@H](N)C(=O)O)c1; Phe(4-CN) = N#Cc1ccc(C[C@H](N)C(=O)O)cc1; Phe(2-CN) = N#Cc1ccccc1C[C@H](N)C(=O)O; Phe(2-Cl) = N[C@@H](Cc1ccccc1Cl)C(=O)O; Bta = N[C@@H](Cc1csc2ccccc12)C(=O)O; Lys(iPr) = CC(C)NCCCC[C@H](N)C(=O)O; αAllylPro = C=CC[C@@]1(C(=O)O)CCCN1; tBuAla = CC(C)(C)C[C@H](N)C(=O)O; 3Thi = N[C@@H](Cc1ccsc1)C(=O)O; Cha = N[C@@H](CC1CCCCC1)C(=O)O; S8 = C=CCCCCCC[C@](C)(N)C(=O)O Where only a bound is given, the exact number is not on record here.

T1: B-cat-Halo (UniProt P35222 1-781)
T1 sequence (looked up): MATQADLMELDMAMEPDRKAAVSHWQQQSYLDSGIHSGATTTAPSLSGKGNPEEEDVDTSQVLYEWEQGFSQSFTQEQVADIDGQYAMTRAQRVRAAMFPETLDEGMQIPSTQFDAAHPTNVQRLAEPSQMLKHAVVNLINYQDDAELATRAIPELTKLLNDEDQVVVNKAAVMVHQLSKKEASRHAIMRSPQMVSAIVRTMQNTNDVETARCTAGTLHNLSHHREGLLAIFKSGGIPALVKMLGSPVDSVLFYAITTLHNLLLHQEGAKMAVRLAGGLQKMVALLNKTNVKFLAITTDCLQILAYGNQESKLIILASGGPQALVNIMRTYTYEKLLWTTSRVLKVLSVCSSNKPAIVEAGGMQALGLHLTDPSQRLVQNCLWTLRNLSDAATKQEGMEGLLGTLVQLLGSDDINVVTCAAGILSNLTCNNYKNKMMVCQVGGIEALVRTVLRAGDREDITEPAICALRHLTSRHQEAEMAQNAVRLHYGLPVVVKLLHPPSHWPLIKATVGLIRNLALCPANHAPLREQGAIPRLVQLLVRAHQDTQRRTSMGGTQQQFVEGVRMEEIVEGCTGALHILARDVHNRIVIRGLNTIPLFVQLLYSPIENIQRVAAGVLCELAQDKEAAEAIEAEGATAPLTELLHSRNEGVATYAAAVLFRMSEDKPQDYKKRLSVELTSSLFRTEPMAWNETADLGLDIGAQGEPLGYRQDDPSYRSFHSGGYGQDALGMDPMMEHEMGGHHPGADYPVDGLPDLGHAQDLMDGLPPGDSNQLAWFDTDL

T2: B-cat-Halo (beta-catenin HaloTag construct expressed in HEK293 cells) (UniProt P35222 1-781)
T2 sequence (looked up): T1 sequence (looked up)

One assay addresses T1, B-cat-Halo. The experiment in a line: cell-based or functional assay.
Consider Ac-[αAllylPro]D[tBuAla][B5(3)]D[TfeGA]AAFT[PyrS2][Phe(2-Cl)][Bta][Nva(5-morpholino)]-NH2 (staple 1-4, 4-11) [I-1609], for which the “NanoBRET Abs IC50” value amounted to 6.7 µM.

For the molecule Ac-[αAllylPro]D[tBuAla][B5(3)]D[Phe(3-COOH)]AAFL[PyrS2][2F3MeF][Bta][Nva(5-morpholino)]-NH2 (staple 1-4, 4-11) [I-1610], the “NanoBRET Abs IC50” value was found to be 4.1 µM.

Turning to Ac-[αAllylPro]D[tBuAla][B5(3)]D[TfeGA]AAFT[PyrS2″][Phe(2-Cl)][Bta][MorphAsn]-NH2 (staple 1-4, 4-11) [I-1613], the “NanoBRET Abs IC50” value was determined as 5.2 µM.

For Ac-[αAllylPro]D[tBuAla][B5(4)]D[Phe(3-COOH)]AAFL[PyrS2][2F3MeF][Bta][F2PipNva]-NH2 (staple 1-4, 4-11) [I-1608], the “NanoBRET Abs IC50” value turned out to be 15.1 µM.

Ac-[αAllylPro]D[tBuAla][B5(3)]D[TfeGA]AAFT[PyrS2″][Phe(2-Cl)][Bta][MePpzAsn]-NH2 (staple 1-4, 4-11) [I-1611]: the “NanoBRET Abs IC50” value turned out to be 9.8 µM.

Ac-[αAllylPro]N[tBuAla][B5(4)]DT[Lys(iPr)]AFN[PyrS2]F[Bta]Q-NH2 (staple 1-4, 4-11) [I-1602]: the “NanoBRET Abs IC50” value was > 20 µM.

Regarding Ac-[αAllylPro]D[tBuAla][B5(4)]D[TfeGA]AAFT[PyrS2][Phe(2-Cl)][Bta][F2PipNva]-NH2 (staple 1-4, 4-11) [I-1607], the “NanoBRET Abs IC50” value is 11.9 µM.

Take Ac-[αAllylPro]D[tBuAla][B5(3)]D[Phe(3-COOH)]AAFL[PyrS2″][2F3MeF][Bta][MorphAsn]-NH2 (staple 1-4, 4-11) [I-1614]: the “NanoBRET Abs IC50” value was determined as 6.4 µM.

For a further assay, the target named is T2, B-cat-Halo (beta-catenin HaloTag …). Put plainly: cell-based or functional assay.
Take Ac-[αAllylPro]D[tBuAla][B5″]DDAAFL[S8][3Thi][Bta]H-NH2 (staple 1-4, 4-11) [I-1195]: the “NanoBRET Abs IC50” value stood at 16.2 µM.

With Ac-[αAllylPro]D[tBuAla][B5″]DDAA[Phe(3-CN)]L[PyrS2(3)][3Thi][Bta]Q-NH2 (staple 1-4, 4-11) [I-1201], the “NanoBRET Abs IC50” value is 19.6 µM.

In the case of Ac-[αAllylPro]D[tBuAla][B5″]DDAAFL[S8][3Thi][Bta]Q-NH2 (staple 1-4, 4-11) [I-1188], the “NanoBRET Abs IC50” value stood at 7.2 µM.

In the case of Ac-[αAllylPro]D[tBuAla][B5″]DDAA[Phe(2-CN)]L[PyrS2(3)][3Thi][Bta]Q-NH2 (staple 1-4, 4-11) [I-1200], the “NanoBRET Abs IC50” value was > 20 µM.

As for Ac-[αAllylPro]D[tBuAla][B5″]DDAA[Phe(4-CN)]L[PyrS2(3)][3Thi][Bta]Q-NH2 (staple 1-4, 4-11) [I-1202], the “NanoBRET Abs IC50” value worked out at 16.3 µM.

Consider Ac-[αAllylPro]D[Cha][B5″]DDAAFT[PyrS2(3)][Phe(F5)][Bta]S-NH2 (staple 1-4, 4-11) [I-1187], for which the “NanoBRET Abs IC50” value stood at 28.6 µM.
